Experimental findings from publication PMC8145704, “Conformational Plasticity of Hepatitis B Core Protein Spikes Promotes Peptide Binding Independent of the Secretion Phenotype” (Microorganisms, 2021) are described below.

Common to all, as to assay: negative-staining electron microscopy
For assay [1], the target named is P5T-HBc capsids (Hepatitis B virus (genotype D; strain ayw)) (UniProt P03146).
Assay [2] concerns the target F97L-HBc capsids (Hepatitis B virus (genotype D; strain ayw)) (UniProt P03146).
For assay [3], the target named is L60V-HBc capsids (Hepatitis B virus (genotype D; strain ayw)) (UniProt P03146).

In assay [1], “P5T-HBc capsids (from UniProt P03146 1-183) (natural protein)” came in with a stoichiometry N (subunits per capsid) of 240.

The substance “F97L-HBc capsids (from UniProt P03146 1-183) (natural protein)” returned a stoichiometry N (subunits per capsid) in assay [2] of 240.

“L60V-HBc capsids (from UniProt P03146 1-183) (natural protein)”: the stoichiometry N (subunits per capsid) in assay [3] was 240.
